Assay results reported in PMC8899190, “Creating a Selective Nanobody Against 3-Nitrotyrosine Containing Proteins” (Frontiers in Chemistry, 2022).

Legend:
Settings in all cases: both partners purified
[1] = biological target: T1, Avi-tagged, biotinylated h14-3-3ß_(nY130) (Homo sapiens, UniProt P31946, 3-nitrotyrosine at 130; biotin on the N-terminal Avi tag); assay: BLI; Nb-G5 (C115S) against nitrated and WT h14-3-3β; conditions of this experiment not told
T1 construct: human 14-3-3 beta with 3-nitrotyrosine in place of Y130, from a pBAD-AVI-14-3-3-His plasmid; also called 14-3-3β_(nY130); 14-3-3_(nY130); source: E. coli BL21ai with genetic code expansion, co-expressed with GST-BirA, purified (TALON); not shown: Avi tag, N-terminal, kept

calmodulin WT = calmodulin WT (species ; human CALM1 entry, …, UniProt P0DP23); assay: BLI; CaM forms on sensors (kind of sensor not told), Nb-G5 in solution (300 nM in Figure 3C); 0.05% Tween; local fits
[2] = biological target: T2, h14-3-3ß_(nY213), His-tagged (Homo sapiens, UniProt P31946, 3-nitrotyrosine at 213); assay: far-Western, overlay or dot blot; 14-3-3 targets (0.5-5 µg) dotted on PVDF, probed with Nb-G5 diluted 1:3,000 in TBS at room temperature, detected with anti-llama HRP
T2 construct: human 14-3-3 beta with 3-nitrotyrosine in place of Y213 (amber suppression); also called nitrated human 14-3-3ß isoform nY213; source: E. coli BL21ai with genetic code expansion, purified (TALON)

[3] = biological target: T3, h14-3-3ß_(nY130), His-tagged (Homo sapiens, UniProt P31946, 3-nitrotyrosine at 130); assay: as above
T3 construct: human 14-3-3 beta with 3-nitrotyrosine in place of Y130 (amber suppression); Held on nickel-coated ELISA plates; also called 14-3-3β nitroY130; source: E. coli BL21ai with genetic code expansion, purified (TALON)
T3 sequence (P31946 whole entry): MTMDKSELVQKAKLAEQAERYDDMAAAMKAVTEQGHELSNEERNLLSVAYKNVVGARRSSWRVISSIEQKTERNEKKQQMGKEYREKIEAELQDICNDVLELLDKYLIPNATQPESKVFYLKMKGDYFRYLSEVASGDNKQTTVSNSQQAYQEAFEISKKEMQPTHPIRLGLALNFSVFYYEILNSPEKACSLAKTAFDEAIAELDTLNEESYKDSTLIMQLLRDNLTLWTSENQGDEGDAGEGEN

T1 sequence (P31946 whole entry): as above
T2 sequence (P31946 whole entry, canonical isoform): as the sequence (P31946 whole entry) above

B1: Nb-G5 (C115S) (VHH)
VHH: QVQLQESGGGLVQPGGSLRLSCAASKNIANFDSMAWYRRSPGKERDLVARLYSDGGTNYEDSVKGRFNISTDIEKNTVYLQMNNLKLEDTARYYCRADLGLFDTSEFPGQGTQVTVSS
notes: also called C115S mutant of Nb-G5
[1]
  fold decrease of binding against Nb-G5: 6 fold

B2: Nb-G5 (VHH)
VHH: QVQLQESGGGLVQPGGSLRLSCAASKNIANFDSMAWYRRSPGKERDLVARLYSDGGTNYEDSVKGRFNISTDIEKNTVYLQMNNLKLEDTARYYCRADLGLFDTCEFPGQGTQVTVSS
notes: alpaca nanobody from phage display; The methods describe two cleavable tags for nanobodies (His6-SUMO cut by ULP1, His-bdNEDD8 cut by bdNEDP1); also called anti-nitroTyr Nb; source: E. coli, purified (TALON, tag cleaved, Superdex 200 SEC)
Calmodulin WT
  binding result: no binding (tested: 300 nM)
[2]
  binding result: binds
[3]
  binding result: binds
